Reference: the supplement of paper PMC10567573

B1: KLHL20 (parent)
chain: YQDMIYAVGGRDDTTELSSAERYN

Variants of: B1
Test: protein stability index of a GFP-peptide fusion (GPS, HEK-293T) (PSI 1-6); higher = more stable
Details: c terminus: a fixed tail appended
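Note: lentivirally expressed fusions sorted by FACS into six bins by GFP to DsRed ratio, PSI derived from sequencing read proportions per bin multiplied by bin number.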

Compared with YQDMIYAVGGRDDTTELSSGERYN [A20G], YQDMIYAVGGRDDTTELSSNERYN [A20N] is higher in protein stability index: 2.29 for the first, 2.82 for the second.

Compared with YQDMIYAVGGRDDTTELSSTERYN [A20T], YQDMIYAVGGRDDTTELSSQERYN [A20Q] is higher in protein stability index: 2.21 for the first, 2.91 for the second.

Compared with YQDMIYAVGGRDDTTELSSLERYN [A20L], YQDMIYAVGGRDDTTELSSEERYN [A20E] is higher in protein stability index: 1.82 for the first, 3.06 for the second.

Compared with YQDMIYAVGGRDDTTELSSPERYN [A20P], YQDMIYAVGGRDDTTELSSHERYN [A20H] is higher in protein stability index: 2.05 for the first, 2.74 for the second.

First: YQDMIYAVGGRDDTTELSSDERYN [A20D]
Second: YQDMIYAVGGRDDTTELSSYERYN [A20Y]
The protein stability index of the first is higher: 2.79 for the first, 1.78 for the second.

Going from YQDMIYAVGGRDDTTELSSMERYN [A20M] to YQDMIYAVGGRDDTTELSSCERYN [A20C], the protein stability index falls from 2.38 to 2.15.

Going from YQDMIYAVGGRDDTTELSSIERYN [A20I] to YQDMIYAVGGRDDTTELSSFERYN [A20F], the protein stability index falls from 2.05 to 2.04.

Going from YQDMIYAVGGRDDTTELSSSERYN [A20S] to YQDMIYAVGGRDDTTELSSKERYN [A20K], the protein stability index rises from 1.98 to 2.03.

First: YQDMIYAVGGRDDTTELSSRERYN [A20R]
Second: YQDMIYAVGGRDDTTELSSWERYN [A20W]
The protein stability index of the first is higher: 2.76 for the first, 1.66 for the second.

Compared with YQDMIYAVGGRDDTTELSSVERYN [A20V], YQDMIYAVGGRDDTTELSSAERNN [Y23N] is higher in protein stability index: 2.41 for the first, 2.59 for the second.

Going from YQDMIYAVGGRDDTTELSSAERKN [Y23K] to YQDMIYAVGGRDDTTELSSAERQN [Y23Q], the protein stability index rises from 2.74 to 3.05.

Compared with YQDMIYAVGGRDDTTELSSAERPN [Y23P], YQDMIYAVGGRDDTTELSSAERSN [Y23S] is lower in protein stability index: 2.72 for the first, 2.54 for the second.

Compared with YQDMIYAVGGRDDTTELSSAERRN [Y23R], YQDMIYAVGGRDDTTELSSAERCN [Y23C] is lower in protein stability index: 2.77 for the first, 2.32 for the second.

Compared with YQDMIYAVGGRDDTTELSSAERWN [Y23W], YQDMIYAVGGRDDTTELSSAERIN [Y23I] is lower in protein stability index: 3 for the first, 1.93 for the second.

Compared with YQDMIYAVGGRDDTTELSSAERAN [Y23A], YQDMIYAVGGRDDTTELSSAERMN [Y23M] is higher in protein stability index: 1.82 for the first, 2.29 for the second.

Going from YQDMIYAVGGRDDTTELSSAERLN [Y23L] to YQDMIYAVGGRDDTTELSSAERDN [Y23D], the protein stability index rises from 2.25 to 2.98.

Going from YQDMIYAVGGRDDTTELSSAERGN [Y23G] to YQDMIYAVGGRDDTTELSSAERTN [Y23T], the protein stability index rises from 2.18 to 2.37.

First: YQDMIYAVGGRDDTTELSSAERVN [Y23V]
Second: YQDMIYAVGGRDDTTELSSAERFN [Y23F]
The protein stability index of the first is higher: 2.93 for the first, 2.13 for the second.

First: YQDMIYAVGGRDDTTELSSAERHN [Y23H]
Second: YQDMIYAVGGRDDTTELSSAEREN [Y23E]
The protein stability index of the first is lower: 2.64 for the first, 2.77 for the second.

First: YQDMIYAVGGRDDTTMLSSAERYN [E16M]
Second: YQDMIYAVGGRDDTTWLSSAERYN [E16W]
The protein stability index of the first is lower: 2.08 for the first, 2.23 for the second.

Going from YQDMIYAVGGRDDTTVLSSAERYN [E16V] to YQDMIYAVGGRDDTTGLSSAERYN [E16G], the protein stability index falls from 2.78 to 2.28.

Compared with YQDMIYAVGGRDDTTSLSSAERYN [E16S], YQDMIYAVGGRDDTTCLSSAERYN [E16C] is lower in protein stability index: 1.91 for the first, 1.5 for the second.

Compared with YQDMIYAVGGRDDTTRLSSAERYN [E16R], YQDMIYAVGGRDDTTNLSSAERYN [E16N] is lower in protein stability index: 2.51 for the first, 2.38 for the second.

Compared with YQDMIYAVGGRDDTTLLSSAERYN [E16L], YQDMIYAVGGRDDTTKLSSAERYN [E16K] is lower in protein stability index: 2.67 for the first, 1.85 for the second.

First: YQDMIYAVGGRDDTTILSSAERYN [E16I]
Second: YQDMIYAVGGRDDTTHLSSAERYN [E16H]
The protein stability index of the first is lower: 2.07 for the first, 2.5 for the second.

First: YQDMIYAVGGRDDTTTLSSAERYN [E16T]
Second: YQDMIYAVGGRDDTTALSSAERYN [E16A]
The protein stability index of the first is higher: 2.17 for the first, 1.95 for the second.

Going from YQDMIYAVGGRDDTTDLSSAERYN [E16D] to YQDMIYAVGGRDDTTQLSSAERYN [E16Q], the protein stability index rises from 2.34 to 2.36.

First: YQDMIYAVGGRDDTTFLSSAERYN [E16F]
Second: YQDMIYAVGGRDDTTYLSSAERYN [E16Y]
The protein stability index of the first is higher: 1.75 for the first, 1.69 for the second.

Compared with YQDMIYAVGGRDDTTPLSSAERYN [E16P], YQDMIYAVGGRDDTTELSSAERYV [N24V] is lower in protein stability index: 2.05 for the first, 1.75 for the second.

Compared with YQDMIYAVGGRDDTTELSSAERYL [N24L], YQDMIYAVGGRDDTTELSSAERYG [N24G] is higher in protein stability index: 2.69 for the first, 2.99 for the second.

First: YQDMIYAVGGRDDTTELSSAERYA [N24A]
Second: YQDMIYAVGGRDDTTELSSAERYM [N24M]
The protein stability index of the first is lower: 1.75 for the first, 2.08 for the second.

Compared with YQDMIYAVGGRDDTTELSSAERYW [N24W], YQDMIYAVGGRDDTTELSSAERYQ [N24Q] is higher in protein stability index: 1.93 for the first, 2.48 for the second.

Going from YQDMIYAVGGRDDTTELSSAERYI [N24I] to YQDMIYAVGGRDDTTELSSAERYK [N24K], the protein stability index rises from 2.02 to 2.16.

Going from YQDMIYAVGGRDDTTELSSAERYR [N24R] to YQDMIYAVGGRDDTTELSSAERYF [N24F], the protein stability index falls from 2.7 to 2.41.

Compared with YQDMIYAVGGRDDTTELSSAERYC [N24C], YQDMIYAVGGRDDTTELSSAERYT [N24T] is lower in protein stability index: 2.02 for the first, 1.85 for the second.

Going from YQDMIYAVGGRDDTTELSSAERYS [N24S] to YQDMIYAVGGRDDTTELSSAERYY [N24Y], the protein stability index rises from 2.24 to 2.31.

Compared with YQDMIYAVGGRDDTTELSSAERYP [N24P], YQDMIYAVGGRDDTTELSSAERYD [N24D] is higher in protein stability index: 2.42 for the first, 3.62 for the second.

First: YQDMIYAVGGRDDTTELSSAERYH [N24H]
Second: YQDMIYAVGGRDDTTELSSAERYE [N24E]
The protein stability index of the first is lower: 2.44 for the first, 2.66 for the second.

Going from YQDMIYAVGGRDDTTEASSAERYN [L17A] to YQDMIYAVGGRDDTTEQSSAERYN [L17Q], the protein stability index falls from 2.44 to 2.24.

Going from YQDMIYAVGGRDDTTEMSSAERYN [L17M] to YQDMIYAVGGRDDTTEKSSAERYN [L17K], the protein stability index rises from 2.35 to 2.41.

Going from YQDMIYAVGGRDDTTEYSSAERYN [L17Y] to YQDMIYAVGGRDDTTEDSSAERYN [L17D], the protein stability index rises from 2.03 to 2.12.

First: YQDMIYAVGGRDDTTEVSSAERYN [L17V]
Second: YQDMIYAVGGRDDTTEWSSAERYN [L17W]
The protein stability index of the first is lower: 2 for the first, 2.45 for the second.

Going from YQDMIYAVGGRDDTTEPSSAERYN [L17P] to YQDMIYAVGGRDDTTEGSSAERYN [L17G], the protein stability index rises from 2.49 to 2.82.

Compared with YQDMIYAVGGRDDTTEHSSAERYN [L17H], YQDMIYAVGGRDDTTERSSAERYN [L17R] is lower in protein stability index: 2.32 for the first, 2.19 for the second.

Compared with YQDMIYAVGGRDDTTEISSAERYN [L17I], YQDMIYAVGGRDDTTECSSAERYN [L17C] is higher in protein stability index: 2.33 for the first, 2.52 for the second.

First: YQDMIYAVGGRDDTTESSSAERYN [L17S]
Second: YQDMIYAVGGRDDTTENSSAERYN [L17N]
The protein stability index of the first is lower: 2.06 for the first, 2.38 for the second.

First: YQDMIYAVGGRDDTTETSSAERYN [L17T]
Second: YQDMIYAVGGRDDTTEESSAERYN [L17E]
The protein stability index of the first is higher: 2.89 for the first, 2.58 for the second.
